Test results reported in patent US20260125457A1 (Janssen / Centocor, published 2026).

Key:
[1] = target: CALRmut on CD34+ cells isolated from CALRmut MPN patients; assay: cell-based or functional assay
[2] = target: T1, Flag/6xhis-CALRdel52 (CALRW12.007) (human, UniProt P27797 18-417); assay: SPR, forced degradation: pH 5.0
T1 construct: also called human CALRdel52
T1 sequence (looked up): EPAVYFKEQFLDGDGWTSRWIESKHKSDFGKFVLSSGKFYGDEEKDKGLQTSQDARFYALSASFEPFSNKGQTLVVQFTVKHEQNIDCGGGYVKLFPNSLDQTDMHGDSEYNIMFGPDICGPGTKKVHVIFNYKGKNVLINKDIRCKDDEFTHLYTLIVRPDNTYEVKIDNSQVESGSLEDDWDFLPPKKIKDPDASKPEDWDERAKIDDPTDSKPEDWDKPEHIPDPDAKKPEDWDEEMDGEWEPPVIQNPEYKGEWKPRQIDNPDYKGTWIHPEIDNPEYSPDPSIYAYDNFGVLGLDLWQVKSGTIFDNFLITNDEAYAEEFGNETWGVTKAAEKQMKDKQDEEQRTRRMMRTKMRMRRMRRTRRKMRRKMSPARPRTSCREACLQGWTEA

[3] = target: T2, Avi/his-CalR-Ins5 (CALRW28.004) (human, UniProt P27797 18-417, limits assumed); assay: SPR, forced degradation: pH 5.0
T2 construct: also called human CALRins5
T2 sequence (looked up): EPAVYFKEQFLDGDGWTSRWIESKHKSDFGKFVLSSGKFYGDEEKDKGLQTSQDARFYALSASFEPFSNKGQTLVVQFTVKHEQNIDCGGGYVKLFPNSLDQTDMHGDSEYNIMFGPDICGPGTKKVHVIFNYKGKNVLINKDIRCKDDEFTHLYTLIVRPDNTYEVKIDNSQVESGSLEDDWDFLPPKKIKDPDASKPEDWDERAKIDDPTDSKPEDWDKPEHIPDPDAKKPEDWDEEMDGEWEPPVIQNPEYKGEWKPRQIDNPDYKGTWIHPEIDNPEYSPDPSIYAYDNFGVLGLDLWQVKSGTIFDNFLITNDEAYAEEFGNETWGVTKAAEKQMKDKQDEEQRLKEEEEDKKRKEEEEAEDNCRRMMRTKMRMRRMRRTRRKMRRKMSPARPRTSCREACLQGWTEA

[4] = target: T3, CD3EG-HSA-6xHis (CD3W220.002) (human, UniProt P07766 22-118; P09693 23-103); assay: SPR, forced degradation: pH 5.0
T3 construct: also called human CD3; not shown: human serum albumin (HSA); 6xHis tag
T3 sequence (P07766 other isoform, or with tags, fused parts or gaps): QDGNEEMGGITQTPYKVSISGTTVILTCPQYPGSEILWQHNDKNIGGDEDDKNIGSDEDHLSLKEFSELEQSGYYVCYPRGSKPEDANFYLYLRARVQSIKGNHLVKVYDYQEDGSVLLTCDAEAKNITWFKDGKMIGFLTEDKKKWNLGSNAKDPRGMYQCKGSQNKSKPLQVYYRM

[5] = target: T1, Flag/6xhis-CALRdel52 (CALRW12.007); assay: SPR, forced degradation: pH 8.5
[6] = target: T2, Avi/his-CalR-Ins5 (CALRW28.004); assay: SPR, forced degradation: pH 8.5
[7] = target: T3, CD3EG-HSA-6xHis (CD3W220.002); assay: SPR, forced degradation: pH 8.5
[8] = target: T1, Flag/6xhis-CALRdel52 (CALRW12.007); assay: SPR, forced degradation: Metal Ox
[9] = target: T2, Avi/his-CalR-Ins5 (CALRW28.004); assay: SPR, forced degradation: Metal Ox
[10] = target: T3, CD3EG-HSA-6xHis (CD3W220.002); assay: SPR, forced degradation: Metal Ox
[11] = target: T1, Flag/6xhis-CALRdel52 (CALRW12.007); assay: SPR, forced degradation: Physiological
[12] = target: T2, Avi/his-CalR-Ins5 (CALRW28.004); assay: SPR, forced degradation: Physiological
[13] = target: T3, CD3EG-HSA-6xHis (CD3W220.002); assay: SPR, forced degradation: Physiological
[14] = target: T4, CD3 on primary human pan T cells (human, UniProt P07766 23-207); assay: flow cytometry on pan CD3 T cells, 1 h at 37 C, AF647 secondary antibody, Geometric Mean
T4 construct: whole, on cells; also called CD3e; CD3ε
T4 sequence (P07766 23-207): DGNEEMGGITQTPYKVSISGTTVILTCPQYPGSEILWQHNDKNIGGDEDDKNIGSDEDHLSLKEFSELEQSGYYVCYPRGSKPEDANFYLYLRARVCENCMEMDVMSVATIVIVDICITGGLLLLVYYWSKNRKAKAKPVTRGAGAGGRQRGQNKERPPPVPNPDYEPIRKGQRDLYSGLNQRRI
Method: FIG. 22 depicts binding of different CALRmutxCD3 bispecific antibodies to pan CD3 T cells. Flow cytometry was used to evaluate CALRmutxCD3 binding to pan CD3 T cells in vitro, by 1 hour 37° C. incubation, with subsequent incubation with secondary AF647-labeled antibody. Geometric mean fluorescence intensity of AF647 was measured to determine antibody binding.
Flow cytometry was used to evaluate the CD3 arm binding of CALRmutxCD3 antibodies listed in Table 21 to CD3+ pan T cells from healthy human donor. CALRmutxCD3 were tested after 1 hour 37° C. incubation with pan T cells.

[15] = target: T4, CD3 on primary human pan T cells; assay: flow cytometry, CD3+ pan T cells of 6 healthy donors; average over pan T cells of 6 healthy donors; 1 hour 37° C. incubation
Method: Flow cytometry was used to evaluate the CD3 arm binding of C3CRB73 to CD3+ pan T cells from 6 different healthy human donors. C3CRB73 and NullxCD3 spFv were tested after 1 hour 37° C. incubation with pan T cells.

% Active [2]: 103%
Kd [2]: 0.114 nM
% Active [3]: 98%
Kd [3]: 0.0342 nM
% Active [4]: 100%
Kd [4]: 0.231 nM
% Active [5]: 104%
Kd [5]: 0.251 nM
% Active [6]: 97%
Kd [6]: 0.0313 nM
% Active [7]: 93%
Kd [7]: 0.28 nM
% Active [8]: 97%
Kd [8]: 0.063 nM
% Active [9]: 94%
Kd [9]: 0.0356 nM
% Active [10]: 91%
Kd [10]: 0.272 nM
% Active [11]: 98%
Kd [11]: 0.0171 nM
% Active [12]: 99%
Kd [12]: 0.0622 nM
% Active [13]: 96%
Kd [13]: 0.301 nM
EC50 (read off the curve) [14]: ~7 nM
EC50 [15]: 23.8 nM
B1: C3CRB73 CALRmut x CD3 bispecific antibody (bispecific antibody, human IgG1, kappa, L234A L235A)
heavy: EVQLLESGGGLVQPGGSLRLSCAVSGIDLSNNAISWVRQAPGKGLEYVGVIGNTGDTYYADSAKGRFTISRDSSKTTLYLQMNSLRAEDTAVYFCVRGPPSYSSSVKNIWGQGTLVTVSSASTKGPSVFPLAPSSKSTSGGTAALGCLVKDYFPEPVTVSWNSGALTSGVHTFPAVLQSSGLYSLSSVVTVPSSSLGTQTYICNVNHKPSNTKVDKKVEPKSCDKTHTCPPCPAPEAAGGPSVFLFPPKPKDTLMISRTPEVTCVVVSVSHEDPEVKFNWYVDGVEVHNAKTKPREEQYNSTYRVVSVLTVLHQDWLNGKEYKCKVSNKALPAPIEKTISKAKGQPREPQVYTLPPSREEMTKNQVSLSCAVKGFYPSDIAVEWESNGQPENNYKTTPPVLDSDGSFFLVSKLTVDKSRWQQGNVFSCSVMHEALHNRFTQKSLSLSPGK
light: DIQMTQSPSSVSASVGDRVTITCQSSQSVYNNNWLSWLQQKPGKAPKRLIYDASKLESGVPSRFSGSGSGTDFTLTISSVQPEDAATYYCAGGFTGNVYTFGGGTKVEIKRTVAAPSVFIFPPSDEQLKSGTASVVCLLNNFYPREAKVQWKVDNALQSGNSQESVTEQDSKDSTYSLSSTLTLSKADYEKHKVYACEVTHQGLSSPVTKSFNRGEC
scFv: DIQMTQSPSSLSASVGDRVTITCRARQSIGTAIHWYQQKPGCAPKLLIKYASESISGVPSRFSGSGSGTDFTLTISSLQPEDFATYYCQQSGSWPYTFGQGTKLEIKGGGSGGSGGCPPCGGSGGEVQLVESGGGLVKPGGSLRLSCAASGFTFSRYNMNWVRQAPGKGLEWVSSISTSSNYIYYADSVKGRFTFSRDNAKNSLDLQMSGLRAEDTAIYYCTRGWGPFDYWGCGTLVTVSSEPKSSDKTHTCPPCPAPEAAGGPSVFLFPPKPKDTLMISRTPEVTCVVVSVSHEDPEVKFNWYVDGVEVHNAKTKPREEQYNSTYRVVSVLTVLHQDWLNGKEYKCKVSNKALPAPIEKTISKAKGQPREPQVYTLPPSREEMTKNQVSLWCLVKGFYPSDIAVEWESNGQPENNYKTTPPVLDSDGSFFLYSKLTVDKSRWQQGNVFSCSVMHEALHNHYTQKSLSLSPGK
notes: IgG1-AAS; also called JNJ-88549968; CALRB421 Fab x CD3 spFv
cytotoxicity EC50, autologous assay, patient CALRmut CD34+ cells [1]: 0.94 nM
cytotoxicity EC90, autologous assay, patient CALRmut CD34+ cells [1]: 7.58 nM
maximal cytotoxicity, autologous assay, CD34+ cells of one donor without detected binding [1]: 68%
maximum cytotoxicity, autologous assay, patient CALRmut CD34+ cells [1]: 69%
